Results on two molecules are retold here after patent US20160200782A1 (MOERAE MATRIX, published 2016).

Targets include CLK2(h) (human, UniProt P49760 1-499, limits assumed); EGFR(T790M)(h) (human, UniProt P00533 696-1210, limits assumed); Ab1(M351T)(h) (human, UniProt P00519 27-1130, limits assumed); GRK5(h) (human, UniProt P34947 1-590); JAK3(h) (human, UniProt P52333 781-1124, limits assumed); MAPK1(h) (human, UniProt P28482 1-360, limits assumed); PKA(h) (human); PKCη(h) (human, UniProt P24723 1-683); TLK2(h) (human, UniProt Q86UE8 1-772, limits assumed); cKit(V560G)(h) (human, UniProt P10721 544-976, limits assumed).

Assay in all cases: cell-based or functional assay
The next experiment has as its target T1, Bmx(h) (human, UniProt P51813 1-675, limits assumed).
T1 sequence (looked up): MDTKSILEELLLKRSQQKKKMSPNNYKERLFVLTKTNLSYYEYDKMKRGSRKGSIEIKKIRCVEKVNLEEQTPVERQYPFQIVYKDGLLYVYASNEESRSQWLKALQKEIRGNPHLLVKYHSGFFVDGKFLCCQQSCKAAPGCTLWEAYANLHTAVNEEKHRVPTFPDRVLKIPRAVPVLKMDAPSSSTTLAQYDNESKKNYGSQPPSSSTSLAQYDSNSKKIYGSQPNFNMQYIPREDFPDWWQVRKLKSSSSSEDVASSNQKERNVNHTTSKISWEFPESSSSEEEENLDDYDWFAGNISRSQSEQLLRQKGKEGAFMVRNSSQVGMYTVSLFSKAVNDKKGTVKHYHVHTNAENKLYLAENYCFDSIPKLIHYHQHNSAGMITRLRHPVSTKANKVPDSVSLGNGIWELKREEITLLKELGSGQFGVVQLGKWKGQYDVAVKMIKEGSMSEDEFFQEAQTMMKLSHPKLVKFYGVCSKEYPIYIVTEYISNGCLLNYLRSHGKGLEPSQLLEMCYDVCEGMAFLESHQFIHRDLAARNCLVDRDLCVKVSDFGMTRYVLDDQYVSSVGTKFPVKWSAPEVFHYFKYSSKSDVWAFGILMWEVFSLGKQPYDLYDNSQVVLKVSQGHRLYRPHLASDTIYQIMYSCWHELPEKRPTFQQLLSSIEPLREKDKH

Consider FAKLAARLYRKALARQLGVAA [MMI-0300], for which the “% activity” value is 103% with CLK2(h), 100% with EGFR(T790M)(h) and 90% in the experiment with Ab1(M351T)(h).

For the molecule KAFAKLAARLYRKALARQLGVAA [MMI-0400], the “% activity” value was determined as 131% with GRK5(h); 122% in the experiment with JAK3(h); 100% with MAPK1(h); 119% with PKA(h); 98% with PKCη(h); 26% with Bmx(h). Moreover, the “% activity” value in the experiment with TLK2(h) was 151%; in the experiment with cKit(V560G)(h) it was 124%.
